Here are results for one molecule from patent publication CN110760483A (UNIV YANGZHOU, dated 2020).

Experiment [1] has as its target T1, rHis-BoTNF-α (pET-30a(+)-BoTNF-α, E. coli BL21(DE3)) (牛 (bovine), UniProt Q06599 78-234).
T1 construct: Own construct; also called rHis-BoTNF-α纯化蛋白; not shown: N-terminal His tag and vector residues of pET-30a(+) up to the BamHI site
T1 sequence (looked up): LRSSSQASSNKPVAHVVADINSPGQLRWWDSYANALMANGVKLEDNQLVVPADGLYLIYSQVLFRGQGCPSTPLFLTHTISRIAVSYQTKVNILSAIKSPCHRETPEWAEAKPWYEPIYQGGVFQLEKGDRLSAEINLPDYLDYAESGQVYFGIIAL
The experiment in a line: Western blot with HRP-3C1 1:1000. A general note: Immunoblotting shows a protein as a band on a membrane.

Experiment [2] addresses T2, 商品化rBoTNF-α (美国R&D公司, 2279-BT-025) (牛 (bovine), UniProt Q06599 78-234).
T2 construct: Commercial protein
T2 sequence (looked up): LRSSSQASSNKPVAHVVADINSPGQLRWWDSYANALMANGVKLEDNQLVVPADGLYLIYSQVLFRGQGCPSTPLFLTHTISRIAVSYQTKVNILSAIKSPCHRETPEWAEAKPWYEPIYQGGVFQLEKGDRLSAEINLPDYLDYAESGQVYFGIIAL
The experiment in a line: indirect ELISA, protein coated at 0.5μg/mL, 3C1 hybridoma supernatant. Background: In an ELISA, binding on a coated surface is turned into a signal by an enzyme label.

Experiment [3] has as its target T3, rhuTNF-α (PeproTech, 300-01A-50) (UniProt P01375 77-233).
T3 construct: Commercial protein
The experiment in a line: indirect ELISA, coated protein, 3C1 hybridoma supernatant.

The target of experiment [4] is T4, rPoTNF-α (美国R&D公司, 690-PT-025) (UniProt P23563 77-232).
T4 construct: Commercial protein
T4 sequence (P23563 77-232 limits assumed): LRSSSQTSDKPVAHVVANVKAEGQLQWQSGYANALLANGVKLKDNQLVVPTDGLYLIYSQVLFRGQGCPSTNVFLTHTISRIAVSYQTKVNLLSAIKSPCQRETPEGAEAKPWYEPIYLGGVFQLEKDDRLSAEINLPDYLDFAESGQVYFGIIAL
Described as above.

Experiment [5] deals with T5, rBoIL-2 (Kingfisher-Biotech公司, rp0026B-005) (UniProt P05016 21-155).
T5 construct: Commercial protein
T5 sequence (looked up): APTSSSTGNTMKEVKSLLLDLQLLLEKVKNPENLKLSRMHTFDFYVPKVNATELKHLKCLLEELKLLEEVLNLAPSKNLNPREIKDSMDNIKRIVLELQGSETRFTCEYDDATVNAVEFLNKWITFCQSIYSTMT
Described as above.

Experiment [6] deals with T6, rBoIFN-γ (美国R&D公司, 2300-BG-02) (UniProt P07353 24-166).
T6 construct: Commercial protein; species read from the label Bo
T6 sequence (looked up): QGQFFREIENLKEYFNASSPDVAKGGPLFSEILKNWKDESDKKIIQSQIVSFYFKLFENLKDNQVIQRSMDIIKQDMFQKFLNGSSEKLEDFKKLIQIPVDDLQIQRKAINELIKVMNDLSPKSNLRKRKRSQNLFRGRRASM
The description is as above.

Experiment [7] addresses T7, 天然羊TNF-α (羊外周血单核细胞) (羊 (sheep)) (UniProt P23383).
T7 sequence (looked up): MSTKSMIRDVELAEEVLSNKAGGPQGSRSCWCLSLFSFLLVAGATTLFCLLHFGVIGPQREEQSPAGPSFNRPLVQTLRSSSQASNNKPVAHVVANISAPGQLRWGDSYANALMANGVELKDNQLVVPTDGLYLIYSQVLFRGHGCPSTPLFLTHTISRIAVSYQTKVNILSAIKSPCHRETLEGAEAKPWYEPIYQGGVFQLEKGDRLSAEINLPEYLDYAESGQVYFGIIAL
The experiment in a line: intracellular flow cytometry, unstimulated sheep PBMC (control well), FITC-3C1 0.5μg/mL. In general terms: Flow cytometry measures light scatter and fluorescence of single cells or particles in a stream.

In experiment [8] the target is T7, 天然羊TNF-α (羊外周血单核细胞) (羊 (sheep)). The experiment in a line: intracellular flow cytometry, PMA/ionomycin-stimulated sheep PBMC, FITC-3C1 0.5μg/mL.
In experiment [9] the target is T8, 天然牛TNF-α (牛外周血单核细胞) (牛 (bovine)) (UniProt Q06599).
T8 sequence (looked up): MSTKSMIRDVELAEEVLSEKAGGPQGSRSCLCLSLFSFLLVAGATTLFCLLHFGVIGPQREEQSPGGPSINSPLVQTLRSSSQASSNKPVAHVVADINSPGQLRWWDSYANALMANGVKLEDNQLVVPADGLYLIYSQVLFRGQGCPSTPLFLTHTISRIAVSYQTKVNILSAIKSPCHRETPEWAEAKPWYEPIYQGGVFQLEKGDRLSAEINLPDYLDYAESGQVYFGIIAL
The experiment in a line: intracellular flow cytometry, unstimulated bovine PBMC (control well), FITC-3C1 0.5μg/mL.

In experiment [10] the target is T8, 天然牛TNF-α (牛外周血单核细胞) (牛 (bovine)). The experiment in a line: intracellular flow cytometry, PMA/ionomycin-stimulated bovine PBMC, FITC-3C1 0.5μg/mL.
The target in experiment [11] is T9, rGST-BoTNF-α (pGEX-6p-1-BoTNF-α, E. coli BL21) (牛 (bovine)) (UniProt Q06599).
T9 sequence (looked up): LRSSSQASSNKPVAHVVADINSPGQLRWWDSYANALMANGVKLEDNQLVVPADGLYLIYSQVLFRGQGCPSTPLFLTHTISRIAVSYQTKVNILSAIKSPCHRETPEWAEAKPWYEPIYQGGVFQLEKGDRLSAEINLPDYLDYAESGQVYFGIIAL
The experiment in a line: indirect ELISA, rGST-BoTNF-α coated at 0.5μg/mL, serially diluted 3C1 ascites, cut-off P/N≥2.1.

T3 sequence (P01375 77-233 limits assumed): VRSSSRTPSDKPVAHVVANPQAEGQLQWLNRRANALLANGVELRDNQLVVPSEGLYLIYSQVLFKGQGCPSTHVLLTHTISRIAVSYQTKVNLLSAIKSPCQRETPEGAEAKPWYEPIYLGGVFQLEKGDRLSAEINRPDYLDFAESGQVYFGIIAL

B1: 单克隆抗体3C1 (具牛、羊交叉反应的抗TNF-α单克隆抗体, 杂交瘤 CCTCC NO:C2019129) (antibody, V domains shown)
VH: QVQLKQSGPGLVQPSQSLSITCTVSGFSLTNFSVHWVRQPPGKGLEWLGVMWSGGSTDYNAAFISRLSIIKDNSKSQVFFKMNGLQADDTAIYYCARSGPYYYSLDYWGQGTSVTVSS
VL: DIQMTQSPASLSASVGETVTITCRASENIYIYLAWYQQKQGKSPQLLVYNAKTLAEGVPSRFSGSGSGTQFSLNINSLQPEDFGSYYCQHHYGTPWTFGGGTKLEIK
notes: Used as ascites, hybridoma supernatant, HRP-labelled (HRP-3C1) or FITC-labelled (FITC-3C1) antibody, depending on the assay; also called mAb 3C1; MAb 3C1
For the molecule B1, the binding result is reported as “binds” in [1]; “binds” in [2]; “no binding (tested: 0.5μg/mL (coating))” in [3]; “no binding (tested: 0.5μg/mL (coating))” in [4]; “no binding (tested: 0.5μg/mL (coating))” in [5]; “no binding (tested: 0.5μg/mL (coating))” in experiment [6]. The 分泌羊TNF-α细胞比例 (percent stained cells) in experiment [7] is 0.027%; in [8], 13.4%. In addition, the 分泌牛TNF-α细胞比例 (percent stained cells) in experiment [9] amounted to 0.051%; in [10], 18.4%. The 效价 (ascites titre) (dilution (1:x)) in experiment [11] was 1.31e+07.
